Patent US20230035659A1, “Compositions and Methods for TTR Gene Editing and Treating ATTR Amyloidosis Comprising a Corticosteroid or Use Thereof” (Intellia Therapeutics, Inc., priority 2019, published 2023)
Strand notation (5' to 3'): a small letter for the sugar, then the base; units joined by * are phosphorothioate-linked, units joined directly phosphodiester-linked; [ ] holds rarer units or linkages, { } end groups; capitals alone tell only the bases. m = 2'-O-methyl; r = 2'-OH (RNA)

Tested on: mouse TTR
Assay: Serum mouse TTR (ELISA) after LNP dosing of mice with murine TTR
Type: in vivo
Details: wild type CD-1 mice; LNP 45:44:9:2, N:P 6; 1, 0.3, 0.1, 0.03, 0.01 mg/kg
Method: Unless otherwise noted, CD-1 female mice, ranging from 6-10 weeks of age were used in each study. Animals were weighed and grouped according to body weight for preparing dosing solutions based on group average weight. LNPs were dosed via the lateral tail vein in a volume of 0.2 mL per animal (approximately 10 mL per kilogram body weight). […] Body weight was measured at twenty-four hours post-administration, and animals were euthanized at various time points by exsanguination via cardiac puncture under isoflourane anesthesia. Blood was collected into serum separator tubes or into tubes containing buffered sodium citrate for plasma as described herein. […]
Blood was collected and the serum was isolated as indicated. The total mouse TTR serum levels were determined using a Mouse Prealbumin (Transthyretin) ELISA Kit (Aviva Systems Biology, Cat. OKIA00111); rat TTR serum levels were measured using a rat specific ELISA kit (Aviva Systems Biology catalog number OKIA00159); human TTR serum levels were measured using a human specific ELISA kit (Aviva Systems Biology catalog number OKIA00081); each according to manufacture's protocol. […] The absorbance of the contents was measured on the Spectramax M5 plate reader with analysis using SoftmaxPro version 7.0 software. […]

B1: G000502: TTR Cyno specific sgRNA modified sequence, SEQ ID NO: 114; guide sequence of CR000689; cross homologous between mouse and cyno (nucleic acid)
guide: mA*mC*mA*rCrArArArUrArCrCrArGrUrCrCrArGrCrGrGrUrUrUrUrArGrAmGmCmUmAmGmAmAmAmUmAmGmCrArArGrUrUrArArArArUrArArGrGrCrUrArGrUrCrCrGrUrUrArUrCrAmAmCmUmUmGmAmAmAmAmAmGmUmGmGmCmAmCmCmGmAmGmUmCmGmGmUmGmCmU*mU*mU*mU
With B1 the “serum mouse TTR levels, dose response” value was “dose response”.
